Data on 1 molecule can be found in patent US20060233832A1 (Rhein Biotech Gesellschaft Fur Neue Biotechnologische …, published 2006).

For orientation: IC50 means the midpoint of a concentration-inhibition curve.

For the assay, the target named is Affinity-purified MHC class I molecules K^b with human β2m (mouse (H-2^b); human).

B1: K^b/S208-215-binding peptide 1 of HBsAgadw2 (IVSPFIPL) (peptide)
peptide: IVSPFIPL
For B1, the IC50 came out at 773 nM.
